Kd data for one substance are collected here from patent publication US20050130151.

A value given as a limit tells only on which side of the number the result lay.

In the data set the test system is FMRP RGG box (isolated, C-terminal deletion construct) (Homo sapiens), Q06787-9. Nature of the data set: filter.

For 28S rRNA fragment (230 nt), the dissociation constant (Kd) (usually the concentration at which binding is half-saturated) is above 5 µM.
